Experimental data from patent publication US12072338B2, “Pharmaceutical peptides for the treatment of inflammatory diseases” (PROTAGONISTS LTD., priority 2007, dated 2024).

Experiments:
Mig = biological target: T1, Mig (Homo sapiens, UniProt Q07325); assay: Micro-array analysis of chemokine binding peptides: Mig
T1 construct: purchased 300-26
T1 sequence (Q07325 23-125): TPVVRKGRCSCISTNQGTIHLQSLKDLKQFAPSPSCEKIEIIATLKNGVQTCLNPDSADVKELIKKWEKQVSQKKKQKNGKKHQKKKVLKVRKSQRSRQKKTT
Experimental: (§1) (1) Printing: Chemokine (CK) solution (in water) was serially diluted with Print Reagent (GenTel BioSurfaces USA) to final concentrations of 50 μg and 25 μg/ml. BSA/BSA-Biotin control solutions (in water) were diluted with Print Reagent to 100 μg/ml. Amplified stock of M13 phage control (M13KEgIII Cloning Vector, New England Biolabs, Cat.No.E8101S) was stored in Tris Buffered Saline (TBS; pH7.5, 4° C.) and diluted with Print Reagent to the working titre (10^8 pfu/μl). An automated spotting robot (16 pin print tool, 0.4 mm head; BioRobotics, UK) was used to print the CK/BSA control/M13 control, 5 repeats per sample (CK 25 μg/ml and 50 μg/ml; BSA 100 μg/ml; M13 20 μl), on PATH Protein Microarray Slides (GenTel, Prod.No. 2-1005/-1025) at […], and 50-70% relative humidity. Printed micro-array slides were stored at Room Temperature (RT) or 4° C. for at least 24 h before use.
(§2) (2) Blocking: Block Buffer (500 μl/partition; PATHblock, GenTel, Prod.No. 2-1014) was applied to the slide for 1 hour at room temp (RT). After removal of Block Buffer, the slide was air dried for 25 minutes;
(§3) (3) Phage Presented Peptide Binding: Amplified recombinant phage stock was stored in TBS and diluted with Wash Buffer to working titer (10^7 pfu/μl). Recombinant phage suspension (300 μl) was applied per partition and incubated at RT for 1 hour with gentle agitation.
(§4) (4) First Washing: The slides were washed twice with Wash Buffer 300 μl/partition).
(§5) (5) Primary Antibody (Ab) Labeling: The slides were incubated with the Primary Ab (1 mg/ml diluted ×2500 (Wash Reagent), 300 μl; Mouse Anti-M13 monoclonal Ab; Amersham Biosciences, UK; Product Code 27-9420-01) for 45 minutes at RT.
(§6) (6) Second Washing: The slides were washed twice with Wash Buffer (300 μl/partition).
(§7) (7) Secondary Ab Labeling: The slides were incubated with Secondary Ab (1.5 mg/ml diluted ×5000 (Wash Reagent), 300 μl; Cy3-conjugated AffiniPure Goat Anti-Mouse IgG; Jackson ImmunoReserch Labs, USA; Product Code 115-165-062).
(§8) (8) Third Washing: The slides were washed twice with Wash Buffer (300 μl/partition).
(§9) (9) Rinse: the slides were rinsed twice with Rinse Buffer (PATHrinse, GenTel, Prod.No. 2-1018) then dried well.
(§10) (10) Scanning: The peptide-bound, labeled slide was scanned (Laser Intensity 80%, Gain 80%, Resolution 10 μm) with a ScanArray Life Scanner (Packard BioChip Technologies, USA).
(§11) (11) Analysis: Quantitative analysis of micro-array was performed by the SpotReader program of Niles Scientific (USA) and presented as Relative Fluorescence (RF) as a function of CK concentration. Micro-array readout (Cy3 fluorescence) was quantified to determine the relative binding affinities of a CBP for the CKs and by inference, the specificity of the CBP for binding to a CK.

IP-10 = biological target: T2, IP-10 (Homo sapiens, UniProt P02778); assay: Micro-array analysis of chemokine binding peptides: IP-10
T2 construct: purchased 300-12
T2 sequence (P02778 22-98): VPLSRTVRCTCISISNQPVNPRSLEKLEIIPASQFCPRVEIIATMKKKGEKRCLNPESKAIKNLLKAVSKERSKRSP
Experimental: as §1, §2, §3, §4, §5, §6, §7, §8, §9, §10, §11

I-TAC = biological target: T3, I-TAC (Homo sapiens, UniProt O14625); assay: Micro-array analysis of chemokine binding peptides: I-TAC
T3 construct: purchased 300-46
T3 sequence (O14625 22-94): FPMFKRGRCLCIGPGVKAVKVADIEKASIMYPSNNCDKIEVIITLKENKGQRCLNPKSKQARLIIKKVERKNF
Experimental: as §1, §2, §3, §4, §5, §6, §7, §8, §9, §10, §11

I-309 = biological target: T4, I-309 (Homo sapiens, UniProt P22362); assay: Micro-array analysis of chemokine binding peptides: I-309
T4 construct: purchased 300-37
T4 sequence (P22362 24-96): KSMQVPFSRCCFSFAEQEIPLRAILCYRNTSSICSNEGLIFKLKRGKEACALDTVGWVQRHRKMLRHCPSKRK
Experimental: as §1, §2, §3, §4, §5, §6, §7, §8, §9, §10, §11

MCP-2 = biological target: T5, MCP-2 (Homo sapiens, UniProt P80075); assay: Micro-array analysis of chemokine binding peptides: MCP-2; conditions: limit = start of the upper 75% of that peptide's response range
T5 construct: purchased 300-15
T5 sequence (P80075 24-99): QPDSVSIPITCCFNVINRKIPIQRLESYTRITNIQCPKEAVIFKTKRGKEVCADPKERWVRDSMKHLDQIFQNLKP
Experimental: as §1, §2, §3, §4, §5, §6, §7, §8, §9, §10, §11

MCP-4 = biological target: T6, MCP-4 (Homo sapiens, UniProt Q99616); assay: Micro-array analysis of chemokine binding peptides: MCP-4; conditions: limit = start of the upper 75% of that peptide's response range
T6 construct: purchased 300-24
T6 sequence (Q99616 17-98): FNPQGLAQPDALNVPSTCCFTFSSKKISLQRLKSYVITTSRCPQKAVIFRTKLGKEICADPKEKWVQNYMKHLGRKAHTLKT
Experimental: as §1, §2, §3, §4, §5, §6, §7, §8, §9, §10, §11

Eotaxin = biological target: T7, Eotaxin (Homo sapiens, UniProt P51671); assay: Micro-array analysis of chemokine binding peptides: Eotaxin
T7 construct: purchased 300-21
Experimental: as §1, §2, §3, §4, §5, §6, §7, §8, §9, §10, §11

Eotaxin 3 = biological target: T8, Eotaxin 3 (Homo sapiens, UniProt Q9Y258); assay: Micro-array analysis of chemokine binding peptides: Eotaxin 3
T8 construct: purchased 300-48
T8 sequence (Q9Y258 24-94): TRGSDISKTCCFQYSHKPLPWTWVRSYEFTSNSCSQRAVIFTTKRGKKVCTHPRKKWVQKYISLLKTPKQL
Experimental: as §1, §2, §3, §4, §5, §6, §7, §8, §9, §10, §11

SDF1-β = biological target: T9, SDF1-β (Homo sapiens, UniProt P48061); assay: Micro-array analysis of chemokine binding peptides: SDF1-β
T9 construct: purchased 300-28b
T9 sequence (P48061 22-93): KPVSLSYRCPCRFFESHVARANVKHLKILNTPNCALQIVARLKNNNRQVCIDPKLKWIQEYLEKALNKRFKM
Experimental: as §1, §2, §3, §4, §5, §6, §7, §8, §9, §10, §11

BCA-1 = biological target: T10, BCA-1 (Homo sapiens, UniProt O43927); assay: Micro-array analysis of chemokine binding peptides: BCA-1
T10 construct: purchased 300-47
T10 sequence (O43927 23-109): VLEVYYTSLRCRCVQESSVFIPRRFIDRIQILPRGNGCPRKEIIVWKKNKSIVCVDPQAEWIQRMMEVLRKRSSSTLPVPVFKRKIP
Experimental: as §1, §2, §3, §4, §5, §6, §7, §8, §9, §10, §11

TECK = biological target: T11, TECK (Homo sapiens, UniProt O15444); assay: Micro-array analysis of chemokine binding peptides: TECK
T11 construct: purchased 300-45
T11 sequence (O15444 24-150): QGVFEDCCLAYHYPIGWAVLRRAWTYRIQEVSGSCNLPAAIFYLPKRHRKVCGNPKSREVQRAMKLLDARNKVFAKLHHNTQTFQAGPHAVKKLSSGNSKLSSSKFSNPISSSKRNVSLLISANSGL
Experimental: as §1, §2, §3, §4, §5, §6, §7, §8, §9, §10, §11

Lymphotactin = biological target: T12, Lymphotactin (Homo sapiens, UniProt P47992); assay: Micro-array analysis of chemokine binding peptides: Lymphotactin
T12 construct: purchased 300-20
T12 sequence (P47992 22-114): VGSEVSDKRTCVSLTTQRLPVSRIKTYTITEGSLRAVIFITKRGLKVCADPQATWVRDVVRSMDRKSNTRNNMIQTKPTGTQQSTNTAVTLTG
Experimental: as §1, §2, §3, §4, §5, §6, §7, §8, §9, §10, §11

[1] = test system: Adjuvant-Induced Arthritis (AIA) rats; assay: Adjuvant Induced Arthritis (AIA) rat model, Clinical Score; format: in vivo; conditions: 25 μg IP on days 7-18
Experimental: Peptides were tested in a rat model of AIA for their anti-inflammatory effects.
Disease Induction: AIA was induced in female Lewis rats aged 7-8 weeks by injection of heat-killed Mycobacerioum tuberculosis (Mt strain H37Ra, Difco Laboratories, USA) dispersed in incomplete Freund's adjuvant to a final concentration of 10 mg/ml (100 μl) at the base of the tail on day 0.
Measurement: Clinical Score (CS, 0-4) for each limb based on (a) joint inflammation, (b) redness, (c) deformity.
Efficacy Protocol 1 (5 rats per group). Peptide/control compound was injected intra-peritoneally (IP, 200 μl) on days 7-11 and 14-18.
Rats were sacrificed (CO2 inhalation) on day 43.
Efficacy Protocol 2 (8 rats per group). Group 1: peptide/PBS was injected intra-peritoneally (IP, 200 μl) on days 7-18; Group 2: PBS was injected IP on days 7-18; Group 3: Dexamethasone (Dexa) was injected IP on days 11 (Clinical Score (CS)1) and 13. Rats were sacrificed on day 43.
Combination Efficacy Protocol 1 (8 rats per group). Group 1: peptide injected IP on days 7-18; Group 2: PBS injected IP on days 7-18; Group 3: Dexa injected IP on day 11 (CS 1) and day 13; Group 4: Dexa injected IP on days 11 and 13 then peptide injected on days 14-22; Group 5: Dexa injected IP on days 11 and 13 then PBS injected on days 14-22.
(§12) Combination Efficacy Protocol 2 (8 rats per group). Group 1: peptide injected IP on days 7-18; Group 2: PBS injected IP on days 7-18; Group 3: Dexa injected IP on day 11 (CS 1) and day 13 then PBS on days 14-22; Group 4: PBS injected IP on days 7-10,12,14; Dexa injected on days 11, 13. Peptide injected on days 15-19.
as §12, with “Protocol 3” for “Protocol 2”, “4: peptide” for “4: PBS”
Control Reagents for Adjuvant Induced Arthritis: Anti-Inflammatory Control: Dexamethasone Sodium Phosphate (Dexacort Forte, Teva) was dissolved in Phosphate Buffer Saline (PBS, GIBCO) to a final concentration of 1 mg/ml and injected in 200 μl (200 μg).
Negative Control: Phosphate Buffer Saline (PBS).

IL-8 = assay: Micro-array analysis of chemokine binding peptides: IL-8; conditions: limit = start of the upper 75% of that peptide's response range
IL-8, sequence (P10145 28-99 limits assumed): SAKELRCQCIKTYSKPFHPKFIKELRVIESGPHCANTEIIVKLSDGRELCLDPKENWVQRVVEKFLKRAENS
Experimental: as §1, §2, §3, §4, §5, §6, §7, §8, §9, §10, §11

Fractalkine = biological target: T13, Fractalkine (Homo sapiens, UniProt P78423); assay: Micro-array analysis of chemokine binding peptides: Fractalkine
T13 construct: purchased 300-31
T13 sequence (P78423 25-100 limits assumed): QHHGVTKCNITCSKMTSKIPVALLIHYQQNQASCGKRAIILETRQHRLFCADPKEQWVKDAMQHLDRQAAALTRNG
Experimental: as §1, §2, §3, §4, §5, §6, §7, §8, §9, §10, §11

[2] = limit = start of the upper 75% of that peptide's response range

binding to Mig, stated in words (Mig)	binding to IP-10, stated in words (IP-10)	binding to I-TAC, stated in words (I-TAC)	binding to I-309, stated in words (I-309)	binding to MCP-2 with relatively high affinity (Relative Fluorescence Units) (MCP-2)	binding to MCP-4 with relatively high affinity (Relative Fluorescence Units) (MCP-4)	binding to Eotaxin, stated in words (Eotaxin)	binding to Eotaxin 3, stated in words (Eotaxin 3)	binding to SDF1-β, stated in words (SDF1-β)	binding to BCA-1, stated in words (BCA-1)	binding to TECK, stated in words (TECK)	binding to Lymphotactin, stated in words (Lymphotactin)	binding to IL-8 with relatively high affinity (Relative Fluorescence Units) (IL-8)	binding to Mig with relatively high affinity (Relative Fluorescence Units) (Mig; [2])	binding to I-TAC with relatively high affinity (Relative Fluorescence Units) (I-TAC; [2])	binding to I-309 with relatively high affinity (Relative Fluorescence Units) (I-309; [2])	binding to Eotaxin 3 with relatively high affinity (Relative Fluorescence Units) (Eotaxin 3; [2])	binding to Fractalkine, stated in words (Fractalkine)	Sequence	maximal anti-inflammatory effect [1]
bound	bound	bound	bound	> 15,000 RFU	> 15,000 RFU	bound	bound	bound	bound	bound	bound							WVFGNAACK [Ph-p8.7]	
																		WVFGNMICK [P8 Rat]	40%
				> 15,000 RFU	> 15,000 RFU			bound	bound	bound		> 15,000 RFU	> 15,000 RFU	> 15,000 RFU	> 15,000 RFU	> 15,000 RFU	bound	WVFGVHFCK [Ph-p8.77]	23%
